Experimental data: article PMC6141180, “The TAB1-p38α complex aggravates myocardial injury and can be targeted by small molecules” (JCI Insight, 2018)
fluorescein = fluorescein label (on the lysine ε-amine)

molecular target: T1, p38α (MAPK14), nonphosphorylated (mouse, UniProt P47811 1-360); assay: fluorescence polarisation; competition: unlabeled peptide titrated into 2 nM fluorescein-labeled MKK3b peptide and 10 μM p38α; 50 mM HEPES pH 7.4, 10 mM MgCl2, 1 mM Chaps, 1 mM DTT, 1% DMSO; ambient temperature, 20 minutes; settings: both partners purified
T1 construct: mouse p38α (MAPK14); Also used as the target of the functional rows on co-expressed p38α (E. coli pETDuet-1 first cloning site; HEK293 plasmid not described); source: E. coli Rosetta II (pETDuet-1), purified
T1 sequence (P47811 whole entry): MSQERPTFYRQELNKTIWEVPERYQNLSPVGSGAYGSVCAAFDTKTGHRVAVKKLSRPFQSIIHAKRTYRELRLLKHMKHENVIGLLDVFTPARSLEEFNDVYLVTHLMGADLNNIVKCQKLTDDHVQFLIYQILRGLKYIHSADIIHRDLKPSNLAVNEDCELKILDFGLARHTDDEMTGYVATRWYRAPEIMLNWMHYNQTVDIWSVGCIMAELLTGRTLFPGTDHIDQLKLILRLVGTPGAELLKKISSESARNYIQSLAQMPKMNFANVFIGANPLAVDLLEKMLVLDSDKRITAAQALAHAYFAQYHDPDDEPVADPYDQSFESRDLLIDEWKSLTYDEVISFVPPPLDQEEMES

binding result | Binder
binds | Ac-GKSKRKKDLRISCMSKPK(fluorescein)-NH2 (stretch of MKK3b, the most abundant splice variant of MAP2K3; added C-terminal lysine that carries the fluorescein; also called C-terminal labelled MKK3b peptide) [fluorescein-labeled MKK3b peptide]
binds | Ac-RVYPVSVPYSSAQSTSKTSVTLSLVMPSQ-NH2 (also called TAB-1 peptide; TAB1 peptide) [TAB1 (residues 384–412) peptide]
binds | Ac-GKSKRKKDLRISCMSKP-NH2 (stretch of MKK3b, the most abundant splice variant of MAP2K3; also called unlabeled MKK3b) [MKK3b peptide, unlabeled]
